According to publication PMC6868437:

B1: [35S]-labelled uS3/Rps3, wt (natural protein)
chain: MVALISKKRKLVADGVFYAELNEFFTRELAEEGYSGVEVRVTPTKTEVIIRATRTQDVLGENGRRINELTLLVQKRFKYAPGTIVLYAERVQDRGLSAVAQAESMKFKLLNGLAIRRAAYGVVRYVMESGAKGCEVVVSGKLRAARAKAMKFADGFLIHSGQPVNDFIDTATRHVLMRQGVLGIKVKIMRDPAKSRTGPKALPDAVTIIEPKEEEPILAPSVKDYRPAEETEAQAEPVEA
modifications: [35S]-labelled

Key:
Assay in all cases: pull-down
[1] = biological target: GST-Rps3, wt (yeast (S. cerevisiae)) (UniProt P05750)
[2] = biological target: rps3-R116D fused to GST (yeast (S. cerevisiae)) (UniProt P05750)
[3] = biological target: GST-a/tif32-CTD-box32 (yeast (S. cerevisiae)) (UniProt P38249)
[4] = biological target: GST-a/tif32-CTD-box33 (yeast (S. cerevisiae)) (UniProt P38249)

Row | Molecule | reduction of binding against wt full-length a/Tif32 [1] [%] | reduction of binding against GST-Rps3 wt [2] [%] | reduction of binding against wt full-length a/Tif32 [2] [%] | reduction of binding against the wt a/Tif32-CTD [3] [%] | reduction of binding against the wt a/Tif32-CTD [4] [%]
1 | [35S]-labelled full-length a/Tif32 with box32 (from UniProt P38249 1-964) (natural protein) | 50 | 35 | 50 |  | 
2 | B1 |  |  |  | 80 | 80
